# Source: the supplement of paper PMC10567573
# B1: INTS3 (parent)
# chain: KKREFRFHPIKETVVEEPVDITPY
# Variants of: B1
# Assay: protein stability index of a GFP-peptide fusion (GPS, HEK-293T) (PSI 1-6); higher = more stable
# Conditions: c terminus: a fixed tail appended
# 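Also: lentivirally expressed fusions sorted by FACS into six bins by GFP to DsRed ratio, PSI derived from sequencing read proportions per bin multiplied by bin number.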
row,Variant,protein stability index
1,KKREFRFAPIKETVVEEPVDITPY [H8A],3.27
2,KKREFRFHPIKETVVEEPVDITPA [Y24A],2.59
3,KKREFRFHPIKETVMEEPVDITPY [V15M],2.13
4,KKREFRFHPIKETVVEEPVDITPM [Y24M],1.76
5,KKREFRFHPIKETVKEEPVDITPY [V15K],1.39
6,KKSEFRFHPIKETVVEEPVDITPY [R3S],1.66
7,KKREFVFHPIKETVVEEPVDITPY [R6V],3.49
8,KKRCFRFHPIKETVVEEPVDITPY [E4C],3.03
9,KKREFRFHPIKPTVVEEPVDITPY [E12P],1.92
10,KKREFRFHPIKETVVEEPVDITPC [Y24C],2.16
11,KKREFRFHPIKETVVYEPVDITPY [E16Y],2.36
12,KKREFRFHPIKETVVEEPVAITPY [D20A],1.26
13,KKREFRFHPIKETVVEPPVDITPY [E17P],1.59
14,KKREFRFHPIKETVVEEPVTITPY [D20T],1.67
15,KKYEFRFHPIKETVVEEPVDITPY [R3Y],2.25
16,KKREFRFHPIKETVNEEPVDITPY [V15N],1.75
17,KKREFRFHPLKETVVEEPVDITPY [I10L],1.75
18,KKREFRFHPIKETVVEEPVDIKPY [T22K],1.88
19,KKNEFRFHPIKETVVEEPVDITPY [R3N],1.76
20,KKDEFRFHPIKETVVEEPVDITPY [R3D],2.84
21,KKREFRFHPIKETQVEEPVDITPY [V14Q],3.65
22,KKREFRFHPIKETVLEEPVDITPY [V15L],1.73
23,KSREFRFHPIKETVVEEPVDITPY [K2S],2.38
24,KKREFRFHPIKETVVEEPVDMTPY [I21M],1.7

row,Variant,protein stability index
1,KKREFRFHPIKETGVEEPVDITPY [V14G],1.63
2,KKREFRFHPIKETTVEEPVDITPY [V14T],1.42
3,KKREFRFHPIKETVVEEPVDDTPY [I21D],2.37
4,KKREFRFHPPKETVVEEPVDITPY [I10P],1.9
5,KKREFRHHPIKETVVEEPVDITPY [F7H],4.63
6,KEREFRFHPIKETVVEEPVDITPY [K2E],2.55
7,KKREFRFHPIKETVVEEPVDIMPY [T22M],1.89
8,KKREFRFHPIKEHVVEEPVDITPY [T13H],2.06
9,KKREFRFHPDKETVVEEPVDITPY [I10D],2.28
10,KKREFRFHPIKETVVEEPVHITPY [D20H],2.25
11,KKREFRFHPIKETVVEEPVEITPY [D20E],2.35
12,KKREFRFHPIKETVVEEPVDITPV [Y24V],2.26
13,KKREFRFHPIKETVVEEPVDIHPY [T22H],2.23
14,KKREFRFHPIKETDVEEPVDITPY [V14D],2.58
15,KKREFGFHPIKETVVEEPVDITPY [R6G],4.57
16,KKREFRFHPIKETVVEESVDITPY [P18S],1.79
17,KKREFRFHPVKETVVEEPVDITPY [I10V],1.98
18,KKREFRFHPIKETVVEEPVDPTPY [I21P],2.5
19,KKREFRFHPIKETVVEEPVDIPPY [T22P],1.86
20,KKREFYFHPIKETVVEEPVDITPY [R6Y],3.66
21,KKREFRFHPIKETVVEEPVDITPN [Y24N],2.03
22,KKREFWFHPIKETVVEEPVDITPY [R6W],2.55
23,KKREFRFHPIKETVVWEPVDITPY [E16W],2.1
24,KKREFRFFPIKETVVEEPVDITPY [H8F],3.49

row,Variant,protein stability index
1,KKRFFRFHPIKETVVEEPVDITPY [E4F],1.94
2,KKREFRFHPIKETVVEEPVDIFPY [T22F],2.57
3,KKREFRFHPIHETVVEEPVDITPY [K11H],2.04
4,LKREFRFHPIKETVVEEPVDITPY [K1L],2.25
5,KKREFRFHPIKETVVEEPVDETPY [I21E],2.37
6,KKREFRFHPIKETVVEYPVDITPY [E17Y],2.06
7,KKREFRFHPIQETVVEEPVDITPY [K11Q],1.82
8,KKREFRFHPIIETVVEEPVDITPY [K11I],1.85
9,KKREFRFHPIKETVVEEPVDITMY [P23M],2.4
10,KKREFRFHPIKEYVVEEPVDITPY [T13Y],3.62
11,KKREFRAHPIKETVVEEPVDITPY [F7A],4.76
12,KKREFRFHPIKETVVNEPVDITPY [E16N],2.39
13,KKREFRFHPIKKTVVEEPVDITPY [E12K],2.19
14,KKRSFRFHPIKETVVEEPVDITPY [E4S],1.33
15,KKREFRFYPIKETVVEEPVDITPY [H8Y],3.43
16,KKREFRFHPIKETVVEERVDITPY [P18R],2.78
17,KKREMRFHPIKETVVEEPVDITPY [F5M],4.36
18,KKREFRSHPIKETVVEEPVDITPY [F7S],4.74
19,KKREFRFHPIKEKVVEEPVDITPY [T13K],1.96
20,KKKEFRFHPIKETVVEEPVDITPY [R3K],2.46
21,KKREFRFHPIKETVVEEPVDILPY [T22L],2.33
22,KKREFRFHPIKETVVEEPWDITPY [V19W],1.38
23,KKREFIFHPIKETVVEEPVDITPY [R6I],4.01
24,KKREFRFHPIKEGVVEEPVDITPY [T13G],2.33

row,Variant,protein stability index
1,KKREFRFHPIKEWVVEEPVDITPY [T13W],2.56
2,KKREFRFHPIKQTVVEEPVDITPY [E12Q],2.48
3,KKREFRFHPIKETVVEEPLDITPY [V19L],1.7
4,KGREFRFHPIKETVVEEPVDITPY [K2G],2.11
5,KKREFRFHPIKETVVEEPQDITPY [V19Q],1.8
6,KKREFRFVPIKETVVEEPVDITPY [H8V],2.49
7,KKREFRFHPIKETVVEEPVDHTPY [I21H],1.59
8,KKREFRFHPIKETVVEEPVDITDY [P23D],2.04
9,KKREWRFHPIKETVVEEPVDITPY [F5W],2.56
10,KKREFRFHPIKETVWEEPVDITPY [V15W],1.53
11,KKREFRPHPIKETVVEEPVDITPY [F7P],4.58
12,KKREFKFHPIKETVVEEPVDITPY [R6K],4.23
13,KKREFRFHPTKETVVEEPVDITPY [I10T],2.27
14,KKREFRFHPIKETVVEEPVDINPY [T22N],1.72
15,KKREFRFHPITETVVEEPVDITPY [K11T],1.97
16,KKREFRFHPIKETPVEEPVDITPY [V14P],1.64
17,KKREFRFHPIKETVVEEPYDITPY [V19Y],2.28
18,KKREFRFHPIKETVVEEPVDITPE [Y24E],2.38
19,KKREFRGHPIKETVVEEPVDITPY [F7G],4.71
20,KKREFRFHPIGETVVEEPVDITPY [K11G],2.04
21,KKREFRFHCIKETVVEEPVDITPY [P9C],2.03
22,KKREFRFHPISETVVEEPVDITPY [K11S],2.31
